Results on two proteins are retold here after patent US20250376495.

Residue numbers refer to the chain shown, from its start. Numbers in names are those of the source.

This data set concerns the target ubiquitin, P0CG48.

ubiquitin, P0CG48, sequence (P0CG48 whole entry, looked up): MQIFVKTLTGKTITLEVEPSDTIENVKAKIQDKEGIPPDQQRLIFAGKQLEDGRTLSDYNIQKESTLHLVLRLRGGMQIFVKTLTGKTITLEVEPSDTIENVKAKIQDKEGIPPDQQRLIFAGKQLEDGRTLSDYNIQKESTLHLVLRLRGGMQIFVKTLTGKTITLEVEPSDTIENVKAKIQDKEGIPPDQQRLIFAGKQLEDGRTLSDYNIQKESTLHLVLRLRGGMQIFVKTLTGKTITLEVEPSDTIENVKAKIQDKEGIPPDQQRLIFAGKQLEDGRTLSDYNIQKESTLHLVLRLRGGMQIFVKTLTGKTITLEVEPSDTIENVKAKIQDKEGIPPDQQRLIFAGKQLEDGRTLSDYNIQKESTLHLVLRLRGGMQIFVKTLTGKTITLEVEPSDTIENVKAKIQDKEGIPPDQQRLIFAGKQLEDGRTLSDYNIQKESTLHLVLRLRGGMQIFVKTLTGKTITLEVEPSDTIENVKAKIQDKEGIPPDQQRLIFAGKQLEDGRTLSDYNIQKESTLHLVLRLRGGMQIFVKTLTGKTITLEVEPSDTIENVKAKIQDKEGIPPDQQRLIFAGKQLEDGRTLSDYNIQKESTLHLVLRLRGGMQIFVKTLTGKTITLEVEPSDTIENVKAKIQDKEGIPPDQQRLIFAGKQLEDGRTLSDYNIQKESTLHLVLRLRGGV

B1: TRIM21 RING E13A (protein)
chain: MASAARLTMMWEAVTCPICLDPFVEPVSIECGHSFCQECISQVGKGGGSVCPVCRQRFLLKNLRPNRQLANMVNNLKEISQEARE
B1: the “Ube2W-mediated TRIM21 RING monoubiquitination time-course” value was “TRIM21 mutants E13A and E13R both showed a slight reduction in activity”.

B2: TRIM21 RING E13R (protein)
chain: B1 chain with A13R
Consider B2, for which the “Ube2W-mediated TRIM21 RING monoubiquitination time-course” value was “TRIM21 mutants E13A and E13R both showed a slight reduction in activity”.
